For assay [1], the system named is UCP1. The assay can be described thus: UCP1 expression in immortalized human brown fat progenitors. The format is cell-based. The procedure: Primary stromal-vascular fraction (SVF) from human neck fat was isolated as described previously (Cannon and Nedergaard, Physiol Rev, 84: 277-359, 2004). Briefly, freshly resected superficial fat (pooled subcutaneous and subplatysmal) and fat located in the deeper neck regions (pooled carotid sheath, longus colli and prevertebral) were collected, minced and digested using collagenase 1 (2 mg/mL in PBS with the addition of 3.5% BSA; Worthington Biochemical Corporation, Lakewood, N.J.), and the SVF was isolated. SVF cells were plated and grown in high glucose Dulbecco's modified Eagle's medium (DMEM/H) supplemented with 10% (v/v) fetal bovine serum (FBS) and 1% penicillin/streptomycin. For adipocyte differentiation, cells were grown to confluent for 6 days (day 6) and then exposed to adipogenic induction mixture in DMEM/H medium containing isobutylmethylxanthine (0.5 mM), dexamethasone (0.1 μM), human insulin (0.5 μM; Roche Applied Science, Indianapolis, Ind.), T3 (2 nM), indomethacin (30 μM), pantothenate (17 μM), biotin (33 μM) and 2% FBS for another 12 days (referred as day 18). Induction medium was changed every 3 days until collected.
Primary SVF cells were immortalized with human telomere reverse transcriptase (hTERT) as described previously (Tchkonia, T., et al. Diabetes 55, 2571-2578, 2006). […]

The subject of assay [2] is WT-1 brown preadipocytes. The assay can be described thus: Cell proliferation (MTT assay) in WT-1 brown preadipocytes. As to conditions: 200 ng/ml; 24 and 72 hours. The format is cell-based, murine. Here is the method: FIGS. 4A-4C graphically depict FGF6 induction of UCP1 expression in brown preadipocytes in a dose-dependent and time-regulated manner. Specifically, FIG. 4A depicts a dose-response curve of UCP1 expression by FGF6 at day 7. Numbers above curve indicate fold-increase relative to vehicle control. FIG. 4B depicts the fold-induction of UCP1 by vehicle control (“C”), FGF6 (“F6”) or FGF21 (“F21”) within 24 hours of treatment. FIG. 4C depicts a time-course of UCP1 expression induced by 200 ng/ml of FGF6, compared with cells differentiated in regular induction media. Numbers above curves indicate fold-induction relative to day 0. FIG. 4D depicts the effect of FGF6 on cell proliferation (measured by MTT assay) at 24 and 72 hours.
The effect of FGF6 on cell proliferation was also evaluated.
For orientation: Formazan colour is commonly taken as a measure of viable cells.

Assay [3] is described as follows: Insulin tolerance test in Chow or high fat diet mice. As to conditions: Chow or HFD mice, 0.5 mg/kg FGF6 s.c. and 1.5 U insulin per kg. Format: in vivo, C57BL6 mice. The procedure: In addition to testing the impact of FGF6 on glucose tolerance, an insulin tolerance test was also performed using Chow fed and Obese (HFD) mice. Animals were fasted for two hours before receiving an intraperitoneal dose of 1.5 IU of recombinant human insulin (Humalog; Eli Lilly and Company, Indianapolis, Ind.). Blood samples were collected from the tail vein for measurement of blood glucose levels using a glucometer before and 15, 30, and 60 min after injections of FGF6 and the buffer control.

Assay [4] concerns UCP1. Nature of the assay: UCP1 mRNA expression in SVF cells from interscapular brown adipose tissue (BAT-SVF). Format: cell-based, C57BL/6 mice. To be noted: growth media, 3 days; vs control. Here is the method:
Eight 6-week old C57BL/6 male mice were sacrificed. Interscapular BAT and axillary subcutaneous WAT were removed, minced and digested with 1 mg/ml collagenase for 45 minutes at 37° C. in DMEM/F12 media, containing 1% BSA and antibiotics. Digested tissues were filtered through sterile 150 μm nylon mesh and centrifuged at 250×g for 5 minutes. The floating fractions consisting of adipocytes were discarded and the pellets representing the SVF were then resuspended in erythrocyte lysis buffer (154 mM NH4Cl, 10 mM KHCO3, 0.1 mM EDTA) for 10 minutes to remove red blood cells. The cells were further centrifuged at 500×g for 5 minutes, plated at 8×10^5 cells/well of a 24-well plate and grown at 37° C. in DMEM/F12 supplemented with 10% FBS at 37° C.
To determine if FGF6 treatment of primary adipose progenitors could also increase UCP1 expression as observed in Example 1, stromo-vascular fraction (SVF) cells, which comprise adipocyte progenitors, were isolated from interscapular brown adipose tissue (BAT-SVF) and subcutaneous white adipose tissue (SQ-SVF). SVF cells were subsequently treated with FGF6 or FGF21 in growth media (DMEM+10% FBS) for 3 days, followed by determination of UCP1 expression. As described in FIGS. 9A and 9B, FGF21 treatment had little effect on UCP1 mRNA expression in either type of SVF cells, as compared to the control. […]

“Also recorded” adds a separate entry of the source.

B1: FGF6: fibroblast growth factor 6; recombinant human FGF from R&D Systems, or mouse FGF6 cDNA overexpressed by lentiviral vector (protein)
chain: KRQRRLYCNVGIGFHLQVLPDGRISGTHEENPYSLLEISTVERGVVSLFGVRSALFVAMNSKGRLYATPSFQEECKFRETLLPNNYNAYESDLYQGTYIALSKYGRVKRGSKVSPIMTVTHFLPRI
Regarding B1, the “increase in UCP1 expression in human brown fat precursors” value in assay [1] was approximately 60 fold. For the same molecule, the “effect on cell proliferation” value in assay [2] is recorded as “virtually no effect”. The “glucose levels in insulin tolerance test (insulin sensitivity)” value in assay [3] is listed as “lower levels of glucose; also recorded: enhanced insulin sensitivity”. The “increase of UCP1 mRNA expression in BAT-SVF” value in assay [4] came out at 4 fold.

The values are drawn from patent US20170173114A1, “METHODS AND COMPOSITIONS FOR INDUCTION OF UCP1 EXPRESSION” (Joslin Diabetes Center, Inc., priority 2014, published 2017).
